Measured values taken from patent publication US20120178908A1 (Novo Nordisk, published 2012).
Changes are numbered by the printed parent chain.

T1: TLT-1 18-188 relipidated in 20:80 PS:PC vesicles (human, UniProt Q86YW5 18-188)
T1 sequence: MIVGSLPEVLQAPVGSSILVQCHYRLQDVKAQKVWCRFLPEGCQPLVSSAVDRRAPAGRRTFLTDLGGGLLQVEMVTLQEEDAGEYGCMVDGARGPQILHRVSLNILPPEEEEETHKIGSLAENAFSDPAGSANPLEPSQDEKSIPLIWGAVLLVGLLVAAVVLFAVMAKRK

T2: TLT-1 receptor on the surface of activated human platelets (human, UniProt Q86YW5 16-311)
T2 sequence: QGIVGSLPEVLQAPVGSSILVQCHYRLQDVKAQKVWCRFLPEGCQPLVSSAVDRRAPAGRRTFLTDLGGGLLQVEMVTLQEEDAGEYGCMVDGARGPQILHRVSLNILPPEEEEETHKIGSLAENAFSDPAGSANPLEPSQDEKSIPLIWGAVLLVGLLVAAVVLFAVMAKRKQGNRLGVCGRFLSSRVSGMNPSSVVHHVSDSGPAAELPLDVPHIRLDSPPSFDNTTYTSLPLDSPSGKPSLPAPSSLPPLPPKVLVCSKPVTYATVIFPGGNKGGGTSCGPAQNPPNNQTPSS

B1: Fab 0012-LC-L0-hTF.1-219; VH-CH1-HPC4 (other)
light: DVVMTQTPLSLPVSLGDQASISCRSSQSLVHRNGNTYFHWCLQKPGQSPKLLIYKVSNRFSGVPDRFSGSGSGTDFTLKISRVEAEDLGVYFCSQSTHVPYTFGGGTKLEIKRTVAAPSVFIFPPSDEQLKSGTASVVCLLNNFYPREAKVQWKVDNALQSGNSQESVTEQDSKDSTYSLSSTLTLSKADYEKHKVYACEVTHQGLSSPVTKSFNRGECSGTTNTVAAYNLTWKSTNFKTILEWEPKPVNQVYTVQISTKSGDWKSKCFYTTDTECDLTDEIVKDVKQTYLARVFSYPAGNVESTGSAGEPLYENSPEFTPYLETNLGQPTIQSFEQVGTKVNVTVEDERTLVRRNNTFLSLRDVFGKDLIYTLYYWKSSSSGKKTAKTNTNEFLIDVDKGENYCFSVQAVIPSRTVNRKSTDSPVECMGQEKGEFRE
heavy: EVKLLESGGGLVQPGGSLKLSCAASGFDFSRYWMTWVRQAPGKGLEWIGEINPDSSTINYTPSLKDKFIISRDNAKNTLYLQMSEVRSEDTALYYCASGVFTSWGQGTLVTVSAASTKGPSVFPLAPCSRSTSESTAALGCLVKDYFPEPVTVSWNSGALTSGVHTFPAVLQSSGLYSLSSVVTVPSSSLGTKTYTCNVDHKPSNTKVDKRVESKEDQVDPRLIDGK
B2: Fab 0023-LC-L3-TF;VH-CH1-HPC4 (other)
light chain-linker-TF: DIVVSQSPSSLAVSAGEKVTMSCKSSQSLLNSRTRKNYLAWYQQKPGQSPKLLIYWASTRESGVPDRFTGSGSGTDFTLTISSVQAEDLAVYYCKQSYNLLTFGAGTKLELKRTVAAPSVFIFPPSDEQLKSGTASVVCLLNNFYPREAKVQWKVDNALQSGNSQESVTEQDSKDSTYSLSSTLTLSKADYEKHKVYACEVTHQGLSSPVTKSFNRGECGSGGGGSGGGGSSGTTNTVAAYNLTWKSTNFKTILEWEPKPVNQVYTVQISTKSGDWKSKCFYTTDTECDLTDEIVKDVKQTYLARVFSYPAGNVESTGSAGEPLYENSPEFTPYLETNLGQPTIQSFEQVGTKVNVTVEDERTLVRRNNTFLSLRDVFGKDLIYTLYYWKSSSSGKKTAKTNTNEFLIDVDKGENYCFSVQAVIPSRTVNRKSTDSPVECMGQEKGEFRE
VH-CH1-HPC4: EVRLVESGGGLVQPGGSLKLSCATSGFTFSDYFMYWIRQTPEKRLEWVAYISNGGDSSSYPDTVKGRFTISRDNAKNTLYLQMSRLKSEDTAMYYCATNKNWDDYYDMDYWGQGTSVTVSSASTKGPSVFPLAPCSRSTSESTAALGCLVKDYFPEPVTVSWNSGALTSGVHTFPAVLQSSGLYSLSSVVTVPSSSLGTKTYTCNVDHKPSNTKVDKRVESKEDQVDPRLIDGK
B3: Fab 0023-LC-L6-TF;VH-CH1-HPC4 (other)
light chain-linker-TF: DIVVSQSPSSLAVSAGEKVTMSCKSSQSLLNSRTRKNYLAWYQQKPGQSPKLLIYWASTRESGVPDRFTGSGSGTDFTLTISSVQAEDLAVYYCKQSYNLLTFGAGTKLELKRTVAAPSVFIFPPSDEQLKSGTASVVCLLNNFYPREAKVQWKVDNALQSGNSQESVTEQDSKDSTYSLSSTLTLSKADYEKHKVYACEVTHQGLSSPVTKSFNRGECGGGGSGGGGSGSGGGGSGGGGSGGGGSSGTTNTVAAYNLTWKSTNFKTILEWEPKPVNQVYTVQISTKSGDWKSKCFYTTDTECDLTDEIVKDVKQTYLARVFSYPAGNVESTGSAGEPLYENSPEFTPYLETNLGQPTIQSFEQVGTKVNVTVEDERTLVRRNNTFLSLRDVFGKDLIYTLYYWKSSSSGKKTAKTNTNEFLIDVDKGENYCFSVQAVIPSRTVNRKSTDSPVECMGQEKGEFRE
VH-CH1-HPC4: B2 VH-CH1-HPC4
B4: Fab 0023-LC-L4a-TF;VH-CH1-HPC4 (other)
light chain-linker-TF: DIVVSQSPSSLAVSAGEKVTMSCKSSQSLLNSRTRKNYLAWYQQKPGQSPKLLIYWASTRESGVPDRFTGSGSGTDFTLTISSVQAEDLAVYYCKQSYNLLTFGAGTKLELKRTVAAPSVFIFPPSDEQLKSGTASVVCLLNNFYPREAKVQWKVDNALQSGNSQESVTEQDSKDSTYSLSSTLTLSKADYEKHKVYACEVTHQGLSSPVTKSFNRGECGSGGGGSGGGGSGGGGSSGTTNTVAAYNLTWKSTNFKTILEWEPKPVNQVYTVQISTKSGDWKSKCFYTTDTECDLTDEIVKDVKQTYLARVFSYPAGNVESTGSAGEPLYENSPEFTPYLETNLGQPTIQSFEQVGTKVNVTVEDERTLVRRNNTFLSLRDVFGKDLIYTLYYWKSSSSGKKTAKTNTNEFLIDVDKGENYCFSVQAVIPSRTVNRKSTDSPVECMGQEKGEFRE
VH-CH1-HPC4: B2 VH-CH1-HPC4
B5: Fab 0051-LC-L4a-TF;VH-CH1-HPC4 (other)
light chain-linker-TF: SIVMTQTPKFLLVSAGDRVTITCKASQSVSNDVAWYQQKPGQSPKLLINYASSRYTGIPDRFTGSGYGTDFTFTISTVQAEDLAVYFCQQDYSSPYTFGGGTKLEIERTVAAPSVFIFPPSDEQLKSGTASVVCLLNNFYPREAKVQWKVDNALQSGNSQESVTEQDSKDSTYSLSSTLTLSKADYEKHKVYACEVTHQGLSSPVTKSFNRGECGSGGGGSGGGGSGGGGSSGTTNTVAAYNLTWKSTNFKTILEWEPKPVNQVYTVQISTKSGDWKSKCFYTTDTECDLTDEIVKDVKQTYLARVFSYPAGNVESTGSAGEPLYENSPEFTPYLETNLGQPTIQSFEQVGTKVNVTVEDERTLVRRNNTFLSLRDVFGKDLIYTLYYWKSSSSGKKTAKTNTNEFLIDVDKGENYCFSVQAVIPSRTVNRKSTDSPVECMGQEKGEFRE
VH-CH1-HPC4: QVQLEQSGAELVRPGVSVKISCKGSGYTFTDYSMHWVKQSHAKSLEWIGVISTYYGDVRYNQKFKGKATMTVDKSSSTAYMALARLTSEDSAIYYCARAPMITTGAWFAYWGQGTLVTVSAASTKGPSVFPLAPCSRSTSESTAALGCLVKDYFPEPVTVSWNSGALTSGVHTFPAVLQSSGLYSLSSVVTVPSSSLGTKTYTCNVDHKPSNTKVDKRVESKEDQVDPRLIDGK
B6: Fab 0012-VH-CH1-L4a-hTF.1-219; LC-HPC4 (other)
heavy: EVKLLESGGGLVQPGGSLKLSCAASGFDFSRYWMTWVRQAPGKGLEWIGEINPDSSTINYTPSLKDKFIISRDNAKNTLYLQMSEVRSEDTALYYCASGVFTSWGQGTLVTVSAASTKGPSVFPLAPCSRSTSESTAALGCLVKDYFPEPVTVSWNSGALTSGVHTFPAVLQSSGLYSLSSVVTVPSSSLGTKTYTCNVDHKPSNTKVDKRVESKGSGGGGSGGGGSGGGGSSGTTNTVAAYNLTWKSTNFKTILEWEPKPVNQVYTVQISTKSGDWKSKCFYTTDTECDLTDEIVKDVKQTYLARVFSYPAGNVESTGSAGEPLYENSPEFTPYLETNLGQPTIQSFEQVGTKVNVTVEDERTLVRRNNTFLSLRDVFGKDLIYTLYYWKSSSSGKKTAKTNTNEFLIDVDKGENYCFSVQAVIPSRTVNRKSTDSPVECMGQEKGEFRE
light: DVVMTQTPLSLPVSLGDQASISCRSSQSLVHRNGNTYFHWCLQKPGQSPKLLIYKVSNRFSGVPDRFSGSGSGTDFTLKISRVEAEDLGVYFCSQSTHVPYTFGGGTKLEIKRTVAAPSVFIFPPSDEQLKSGTASVVCLLNNFYPREAKVQWKVDNALQSGNSQESVTEQDSKDSTYSLSSTLTLSKADYEKHKVYACEVTHQGLSSPVTKSFNRGECEDQVDPRLIDGK
B7: Fab 0082-VH-CH1-L10-TF;LC-HPC4 (other)
VH-CH1-linker-TF: EVKLLESGGGLVQPGGSLKLSCAASGFDFSRYWMTWVRQAPGKGLEWIGEINPDSSTINYAPSLKDKFIISRDNAKNTLYLQMSEVRSEDTALYYCASGVFTSWGQGTLVTVSAASTKGPSVFPLAPCSRSTSESTAALGCLVKDYFPEPVTVSWNSGALTSGVHTFPAVLQSSGLYSLSSVVTVPSSSLGTKTYTCNVDHKPSNTKVDKRVESKYGPPSPSSPAPEFLGGSGTTNTVAAYNLTWKSTNFKTILEWEPKPVNQVYTVQISTKSGDWKSKCFYTTDTECDLTDEIVKDVKQTYLARVFSYPAGNVESTGSAGEPLYENSPEFTPYLETNLGQPTIQSFEQVGTKVNVTVEDERTLVRRNNTFLSLRDVFGKDLIYTLYYWKSSSSGKKTAKTNTNEFLIDVDKGENYCFSVQAVIPSRTVNRKSTDSPVECMGQEKGEFRE
light chain-HPC4: B6 light with C41A
B8: Fab 0061-VH-CH1-L10-TF;LC-HPC4 (other)
VH-CH1-linker-TF: B7 VH-CH1-linker-TF with A61N
light chain-HPC4: B6 light with C41A

Assays:
[1] = target: T1, TLT-1 18-188 relipidated in 20:80 PS:PC …; test: cell-based or functional assay
[2] = target: T2, TLT-1 receptor on the surface of …; test: cell-based or functional assay

| Binder | FVII-mediated FXa generation % Activity lipidated TLT-1 [1] [%] | FVIIa-mediated FXa generation % Activity lipidated TLT-1 [1] [%] | FVIIa-mediated FXa generation % Activity activated plts (n 1) [2] [%] | FVII-mediated FXa generation % Activity activated plts (n 1) [2] [%] |
| --- | --- | --- | --- | --- |
| B1 | 90 | 98 | 132 | – |
| B2 | 26 | 42 | 43 | 20 |
| B3 | 27 | 44 | 45 | 20 |
| B4 | 24 | 40 | 21 | 21 |
| B5 | 22 | 43 | – | – |
| B6 | 60 | 72 | – | – |
| B7 | 103 | 103 | 57 | 40 |
| B8 | 101 | 101 | 62 | 39 |
